# Experimental data published in patent publication US12528864.
# Target: human CD96, native, on primary human T cells (human) (UniProt P40200)
# Test: flow cytometry on primary human CD3+ T cells
binder,measurement,value
"42Y073-86F08-3 (antibody, V domains shown) VH: QVQLVQSGAEVKKPGSSVKVSCKASGGTFVNYAISWVRQAPGQGLEWMGGIIPALGTANYAQKFQGRVTITADESTSTAYMELSSLRSEDTAVYYCARGAGYYGDKDPMDVWGQGTTVTVSS VL: DIQLTQSPSSLSASVGDRVTITCRASQSISSYLNWYQQKPGKAPKLLIYAASSLQSGVPSRFSGSGSGTDFTLTISSLQPEDFATYYCQQVLHTITFGGGTKVEIK",EC50,0.05 nM
"42Y073-86F08-22 (antibody, V domains shown) VH: QVQLVQSGAEVKKPGASVKVSCKASGYTFDSYAMHWVRQAPGQGLEWMGGIIPIFGTAWYAQKFQGRVTITADESTSTAYMELSSLRSEDTAVYYCARGAGYYGDKDPMDVWGQGTTVTVSS VL: DIQLTQSPSSLSASVGDRVTITCRASQSISSYLNWYQQKPGKAPKLLIYAASSLQSGVPSRFSGSGSGTDFTLTISSLQPEDFATYYCQQVLHTITFGGGTKVEIK",EC50,0.18 nM
"42Y073-86F08-47 (antibody, V domains shown) VH: QVQLVQSGAEVKKPGSSVKVSCKASGGTFSQYAIHWVRQAPGQGLEWMGVIIPIFGKANYAQKFQGRVTITADESTSTAYMELSSLRSEDTAVYYCARGAGYYGDKDPMDVWGQGTTVTVSS VL: DIQLTQSPSSLSASVGDRVTITCRASQSISSYLNWYQQKPGKAPKLLIYAASSLQSGVPSRFSGSGSGTDFTLTISSLQPEDFATYYCQQVLHTITFGGGTKVEIK",EC50,0.03 nM
"42Y073-86F08-17 (antibody, V domains shown) VH: QVQLVQSGAEVKKPGSSVKVSCKASGGTFREYAISWVRQAPGQGLEWMGGIIPVFGTANYAQKFQGRVTITADESTSTAYMELSSLRSEDTAVYYCARGAGYYGDKDPMDVWGQGTTVTVSS VL: DIQLTQSPSSLSASVGDRVTITCRASQSISSYLNWYQQKPGKAPKLLIYAASSLQSGVPSRFSGSGSGTDFTLTISSLQPEDFATYYCQQVLHTITFGGGTKVEIK",EC50,0.01 nM
"42Y073-86F08-8 (antibody, V domains shown) VH: QVQLVQSGAEVKKPGSSVKVSCKASGGTFWLYAISWVRQAPGQGLEWMGGIIPQLGTANYAQKFQGRVTITADESTSTAYMELSSLRSEDTAVYYCARGAGYYGDKDPMDVWGQGTTVTVSS VL: DIQLTQSPSSLSASVGDRVTITCRASQSISSYLNWYQQKPGKAPKLLIYAASSLQSGVPSRFSGSGSGTDFTLTISSLQPEDFATYYCQQVLHTITFGGGTKVEIK",EC50,0.04 nM
"42Y073-86F08-4 (antibody, V domains shown) VH: QVQLVQSGAEVKKPGSSVKVSCKASGGTFSEYAIHWVRQAPGQGLEWMGNIIPIFGTAGYAQKFQGRVTITADESTSTAYMELSSLRSEDTAVYYCARGAGYYGDKDPMDVWGQGTTVTVSS VL: DIQLTQSPSSLSASVGDRVTITCRASQSISSYLNWYQQKPGKAPKLLIYAASSLQSGVPSRFSGSGSGTDFTLTISSLQPEDFATYYCQQVLHTITFGGGTKVEIK",EC50,0.01 nM
"42Y073-1A01-100 (antibody, V domains shown) VH: QVQLVQSGAEVKKPGASVKVSCKASGYTFTTYRMHWVRQAPGQGLEWMGIINPSGGLTQYAQKFQGRVTMTRDTSTSTVYMELSSLRSEDTAVYYCARETAYYTTKGNWFDPWGQGTLVTVSS VL: DIQMTQSPSSLSASVGDRVTITCRASQSISSYLNWYQQKPGKAPKLLIYAASSLQSGVPSRFSGSGSGTDFTLTISSLQPEDFATYYCQQSLYPPRTFGGGTKVEIK",EC50,0.01 nM
"42Y073-86F04-4 (antibody, V domains shown) VH: QVQLVQSGAEVKKPGSSVKVSCKASGGTFESEAISWVRQAPGQGLEWMGGIIPIFGRARYAQKFQGRVTITADESTSTAYMELSSLRSEDTAVYYCARLLGESGMDVWGQGTTVTVSS VL: DIQMTQSPSSLSASVGDRVTITCRASQSISSYLNWYQQKPGKAPKLLIYAASSLQSGVPSRFSGSGSGTDFTLTISSLQPEDFATYYCQQPYFSPPTFGGGTKVEIK",EC50,0.05 nM
"42Y073-1A01-191 (antibody, V domains shown) VH: QVQLVQSGAEVKKPGASVKVSCKASGYTFTKYRMHWVRQAPGQGLEWMGIINPQGGSTSYAQKFQGRVTMTRDTSTSTVYMELSSLRSEDTAVYYCARETAYYTTKGNWFDPWGQGTLVTVSA VL: DIQMTQSPSSLSASVGDRVTITCRASQSISSYLNWYQQKPGKAPKLLIYAASSLQSGVPSRFSGSGSGTDFTLTISSLQPEDFATYYCQQSLYPPRTFGGGTKVEIK",EC50,0.38 nM
"42Y073-86F04-18 (antibody, V domains shown) VH: QVQLVQSGAEVKKPGSSVKVSCKASGGTFSSRAISWVRQAPGQGLEWMGGIIPIMGTARYAQKFQGRVTITADESTSTAYMELSSLRSEDTAVYYCARLLGESGMDVWGQGTTVTVSS VL: DIQMTQSPSSLSASVGDRVTITCRASQSISSYLNWYQQKPGKAPKLLIYAASSLQSGVPSRFSGSGSGTDFTLTISSLQPEDFATYYCQQPYFSPPTFGGGTKVEIK",EC50,0.01 nM
"42Y073-1A01-103 (antibody, V domains shown) VH: QVQLVQSGAEVKKPGASVKVSCKASGYTFTAYQMHWVRQAPGQGLEWMGIINPAGGWTSYAQKFQGRVTMTRDTSTSTVYMELSSLRSEDTAVYYCARETAYYTTKGNWFDPWGQGTLVTVSS VL: DIQMTQSPSSLSASVGDRVTITCRASQSISSYLNWYQQKPGKAPKLLIYAASSLQSGVPSRFSGSGSGTDFTLTISSLQPEDFATYYCQQSLYPPRTFGGGTKVEIK",EC50,0.01 nM
"42Y073-86F04-5 (antibody, V domains shown) VH: QVQLVQSGAEVKKPGSSVKVSCKASGGTFSSHAISWVRQAPGQGLEWMGGIIPIFGRGKYAQKFQGRVTITADESTSTAYMELSSLRSEDTAVYYCARLLGESGMDVWGQGTTVTVSS VL: DIQMTQSPSSLSASVGDRVTITCRASQSISSYLNWYQQKPGKAPKLLIYAASSLQSGVPSRFSGSGSGTDFTLTISSLQPEDFATYYCQQPYFSPPTFGGGTKVEIK",EC50,0.05 nM
"42Y073-86F04-6 (antibody, V domains shown) VH: QVQLVQSGAEVKKPGSSVKVSCKASGGTFSGHAISWVRQAPGQGLEWMGGIIPIFGRARYAQKFQGRVTITADESTSTAYMELSSLRSEDTAVYYCARLLGESGMDVWGQGTTVTVSS VL: DIQMTQSPSSLSASVGDRVTITCRASQSISSYLNWYQQKPGKAPKLLIYAASSLQSGVPSRFSGSGSGTDFTLTISSLQPEDFATYYCQQPYFSPPTFGGGTKVEIK",EC50,0.01 nM
"42Y073-1A01-85 (antibody, V domains shown) VH: QVQLVQSGAEVKKPGASVKVSCKASGYTFTSYPMHWVRQAPGQGLEWMGIINPSGGFTSYAQKFQGRVTMTRDTSTSTVYMELSSLRSEDTAVYYCARETAYYTTKGNWFDPWGQGTLVTVSA VL: DIQMTQSPSSLSASVGDRVTITCRASQSISSYLNWYQQKPGKAPKLLIYAASSLQSGVPSRFSGSGSGTDFTLTISSLQPEDFATYYCQQSLYPPRTFGGGTKVEIK",EC50,0.32 nM
"42Y073-86F04-3 (antibody, V domains shown) VH: QVQLVQSGAEVKKPGSSVKVSCKASGGTFSYNAISWVRQAPGQGLEWMGGIIPIMGTARYAQKFQGRVTITADESTSTAYMELSSLRSEDTAVYYCARLLGESGMDVWGQGTTVTVSS VL: DIQMTQSPSSLSASVGDRVTITCRASQSISSYLNWYQQKPGKAPKLLIYAASSLQSGVPSRFSGSGSGTDFTLTISSLQPEDFATYYCQQPYFSPPTFGGGTKVEIK",EC50,0.09 nM
